{
  "source": "patent US7741124B2",
  "about": "“Detection procedures for fibrinogen and/or fibrinogen derivatives” (priority 2003, dated 2010)",
  "test_system": "vancomycin",
  "assay": "Vancomycin-reactivity with fibrinogen split products (t-PA incubated plasma) or BrCN-cleaved fibrinogen",
  "type": "biochemical",
  "details": "50 μl 1000 IU/ml t-PA",
  "procedure": "25 μl P-Pool were incubated with 25 μl 0 mM or 15 mM CT in PBS for 60 min (RT). Then 50 μl 1000 IU/ml t-PA, 0.1% Triton X 100® in PBS were added. […] In addition, 10 mg/ml BrCN-cleaved fibrinogen in 6% BSA-PBS or in pooled serum were assayed in the FIATA.",
  "data": [
    {"molecule": "t-PA: t-PA, 1000 IU/ml in PBS, 0.1% Triton X 100 (protein, UniProt P00750 36-562, looked up) Tissue-type plasminogen …: SYQVICRDEKTQMIYQQHQSWLRPVLRSNRVEYCWCNSGRAQCHSVPVKSCSEPRCFNGGTCQQALYFSDFVCQCPEGFAGKCCEIDTRATCYEDQGISYRGTWSTAESGAECTNWNSSALAQKPYSGRRPDAIRLGLGNHNYCRNPDRDSKPWCYVFKAGKYSSEFCSTPACSEGNSDCYFGNGSAYRGTHSLTESGASCLPWNSMILIGKVYTAQNPSAQALGLGKHNYCRNPDGDAKPWCHVLKNRRLTWEYCDVPSCSTCGLRQYSQPQFRIKGGLFADIASHPWQAAIFAKHRRSPGERFLCGGILISSCWILSAAHCFQERFPPHHLTVILGRTYRVVPGEEEQKFEVEKYIVHKEFDDDTYDNDIALLQLKSDSSRCAQESSVVRTVCLPPADLQLPDWTECELSGYGKHEALSPFYSERLKEAHVRLYPSSRCTSQHLLNRTVTDNMLCAGDTRSGGPQANLHDACQGDSGGPLVCLNDGRMTLVGIISWGLGCGQKDVPGVYTKVTNYLDWIRDNMRP", "values": [
      {"measurement": "time for 50% loss of vancomycin reactivity", "setting": "15 mM CT-oxidized plasma", "value": "about 1 h"},
      {"measurement": "incubation time for complete loss of vancomycin reactivity", "setting": "25 μl 15 mM CT-oxidized citrated plasma", "value": 3, "unit": "h"},
      {"measurement": "time for 50% loss of vancomycin reactivity", "setting": "unoxidized plasma", "value": 6, "unit": "h"}
    ]}
  ]
}
